Source: publication PMC5814901

Columns and labels:
[1] = biological target: UvrAB complex formed beforehand on DNA tightropes (Bacillus caldotenax) (UniProt P56981); assay: single-molecule fluorescence colocalisation on DNA tightropes (two colours); UvrAB complexes first formed on undamaged DNA tightropes with the Qdot on UvrB (unlabelled, non-biotinylated UvrA) or on UvrA; streptavidin-Qdot-labelled biotin-UvrC of another colour then added; dual-coloured complexes counted; room temperature; ABC buffer
[2] = biological target: UvrAB complex formed beforehand on DNA tightropes (Bacillus caldotenax) (UniProt P56981); assay: single-molecule fluorescence colocalisation on DNA tightropes (three colours); UvrA, UvrB and UvrC (1:1:0.5 nM) labelled with different Qdots (565, 605, 655 nm), incubated together, then added to undamaged λ-DNA tightropes; room temperature; ABC buffer (50 mM Tris-HCl pH 7.5, 50 mM KCl, 1 mM ATP, 10 mM MgCl2, 10 mM DTT)
[3] = biological target: UvrC (Bacillus caldotenax) (Bacillus caldotenax); assay: as above
[4] = biological target: UvrA (Bacillus caldotenax) (Bacillus caldotenax); assay: as above

| Molecule | occurrence of the dual-colour complex among DNA-bound Qdots [1] [%] | occurrence of the triple-coloured complex among DNA-bound Qdots [2] [%] | occurrence of the complex among DNA-bound Qdots [3] [%] | occurrence of the complex among DNA-bound Qdots [4] [%] |
| --- | --- | --- | --- | --- |
| UvrC (Bacillus caldotenax) (natural protein) | 16.6 | 1.6 |  |  |
| UvrB (Bacillus caldotenax) (natural protein) MVEGRFQLVAPYEPQGDQPQAIAKLVDGLRRGVKHQTLLGATGTGKTFTISNVIAQVNKPTLVIAHNKTLAGQLYSELKEFFPHNAVEYFVSYYDYYQPEAYVPQTDTYIEKDAKINDEIDKLRHSATSALFERRDVIIVASVSCIYGLGSPEEYRELVVSLRVGMEIERNALLRRLVDIQYDRNDIDFRGTFRVRGDVVEIFPASRDEHCIRVEFFGDEIERIREVDALTGKVLGEREHVAIFPASHFVTREEKMRLAIQNIEQELEERLAELRAQGKLLEAQRLEQRTRYDLEMMREMGFCSGIENYSRHLALRPPGSTPYTLLDYFPDDFLIIVDESHVTLPQLRGMYNGDRARKQVLVDHGFRLPSALDNRPLTFEEFEQKINQIIYVSATPGPYELEHSPGVVEQIIRPTGLLDPTIDVRPTKGQIDDLIGEIRERVERNERTLVTTLTKKMAEDLTDYLKEAGIKVAYLHSEIKTLERIEIIRDLRLGKYDVLVGINLLREGLDIPEVSLVAILDADKEGFLRSERSLIQTIGRAARNANGHVIMYADTITKSMEIAIQETKRRRAIQEEYNRKHGIVPRTVKKEIRDVIRATYAAEETEMYEAKPAAAMTKQEREELIRTLEAEMKEAAKALDFERAAQLRDIIFELKAEG |  |  | 1.6 | 6.7 |
